Data published in the supplement of paper PMC9112550, “Optimization of the antimicrobial peptide Bac7 by deep mutational scanning” (BMC Biology, 2022).

Tested on: Escherichia coli TOP10
Experiment: shrunken log2 fold change of peptide-encoding DNA abundance (4.5 h post-induction vs induction); higher = less antimicrobial activity (less host growth inhibition)
Settings: time post-induction: 4.5 h; library: site-saturation at positions 5, 18, 19, 20
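Note: peptides expressed intracellularly from a pBAD plasmid library in pooled LB shake-flask culture, induced with 0.3% L-arabinose, DNA abundance read by NGS, three biological replicates, DESeq2 with apeglm shrinkage.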

RRIRWRPPRLPRPRPRPYIMPRP
shrunken log2 fold change: -0.116

RRIRDRPPRLPRPRPRPEWGPRP
shrunken log2 fold change: 0.0825

RRIRPRPPRLPRPRPRPKWVPRP
shrunken log2 fold change: 0.111

RRIRCRPPRLPRPRPRPNLWPRP
shrunken log2 fold change: 0.00489

RRIRRRPPRLPRPRPRPHRYPRP
shrunken log2 fold change: -0.0438

RRIRVRPPRLPRPRPRPCVVPRP
shrunken log2 fold change: 0.0226

RRIRVRPPRLPRPRPRPARQPRP
shrunken log2 fold change: 0.365

RRIRERPPRLPRPRPRPKYVPRP
shrunken log2 fold change: -0.475

RRIRVRPPRLPRPRPRPRSQPRP
shrunken log2 fold change: 0.25

RRIRMRPPRLPRPRPRPYGLPRP
shrunken log2 fold change: -0.248

RRIRTRPPRLPRPRPRPESEPRP
shrunken log2 fold change: -0.0433

RRIRQRPPRLPRPRPRPADEPRP
shrunken log2 fold change: -0.101

RRIRFRPPRLPRPRPRPEILPRP
shrunken log2 fold change: -0.0488

RRIRHRPPRLPRPRPRPQECPRP
shrunken log2 fold change: -0.0126

RRIRWRPPRLPRPRPRPGQLPRP
shrunken log2 fold change: -0.0402

RRIRLRPPRLPRPRPRPLKSPRP
shrunken log2 fold change: -0.146

RRIRPRPPRLPRPRPRPWTDPRP
shrunken log2 fold change: 0.0245

RRIRPRPPRLPRPRPRPYCSPRP
shrunken log2 fold change: -0.294

RRIRDRPPRLPRPRPRPRAHPRP
shrunken log2 fold change: 0.38

RRIRERPPRLPRPRPRPTEEPRP
shrunken log2 fold change: 0.00212

RRIRERPPRLPRPRPRPPNTPRP
shrunken log2 fold change: -0.284

RRIRIRPPRLPRPRPRPAYIPRP
shrunken log2 fold change: 0.011

RRIRVRPPRLPRPRPRPGFFPRP
shrunken log2 fold change: 0.0758

RRIRMRPPRLPRPRPRPYWPPRP
shrunken log2 fold change: -0.311

RRIRCRPPRLPRPRPRPSSPPRP
shrunken log2 fold change: -0.461

RRIRCRPPRLPRPRPRPQKTPRP
shrunken log2 fold change: -0.162

RRIRWRPPRLPRPRPRPPAWPRP
shrunken log2 fold change: 0.794

RRIRTRPPRLPRPRPRPCVCPRP
shrunken log2 fold change: -0.206

RRIRMRPPRLPRPRPRPGSNPRP
shrunken log2 fold change: 0.211

RRIRKRPPRLPRPRPRPWELPRP
shrunken log2 fold change: 0.221

RRIRCRPPRLPRPRPRPMPSPRP
shrunken log2 fold change: 2.8

RRIRERPPRLPRPRPRPFVMPRP
shrunken log2 fold change: -0.345

RRIRTRPPRLPRPRPRPRDDPRP
shrunken log2 fold change: 0.107

RRIRTRPPRLPRPRPRPKPCPRP
shrunken log2 fold change: -0.126

RRIRIRPPRLPRPRPRPMCMPRP
shrunken log2 fold change: -0.216

RRIRDRPPRLPRPRPRPRSNPRP
shrunken log2 fold change: 0.148

RRIRIRPPRLPRPRPRPQKSPRP
shrunken log2 fold change: -0.403

RRIRHRPPRLPRPRPRPCEQPRP
shrunken log2 fold change: -0.0166

RRIRERPPRLPRPRPRPKCWPRP
shrunken log2 fold change: 0.23

RRIRNRPPRLPRPRPRPLICPRP
shrunken log2 fold change: -0.771

RRIRFRPPRLPRPRPRPEYLPRP
shrunken log2 fold change: -0.203

RRIRLRPPRLPRPRPRPCYAPRP
shrunken log2 fold change: -0.0464

RRIRFRPPRLPRPRPRPPMGPRP
shrunken log2 fold change: -0.00833

RRIRVRPPRLPRPRPRPTFSPRP
shrunken log2 fold change: -0.3

RRIRLRPPRLPRPRPRPDEHPRP
shrunken log2 fold change: -0.287

RRIRIRPPRLPRPRPRPNVLPRP
shrunken log2 fold change: -0.349

RRIRFRPPRLPRPRPRPTPVPRP
shrunken log2 fold change: 0.706

RRIRRRPPRLPRPRPRPTEVPRP
shrunken log2 fold change: 0.238

RRIRTRPPRLPRPRPRPPWVPRP
shrunken log2 fold change: 0.128

RRIRQRPPRLPRPRPRPKYTPRP
shrunken log2 fold change: -0.776

RRIRGRPPRLPRPRPRPQWGPRP
shrunken log2 fold change: 0.376

RRIRRRPPRLPRPRPRPYHFPRP
shrunken log2 fold change: -0.116

RRIRERPPRLPRPRPRPEPKPRP
shrunken log2 fold change: 0.0877

RRIRPRPPRLPRPRPRPPKCPRP
shrunken log2 fold change: -0.028

RRIRYRPPRLPRPRPRPRMNPRP
shrunken log2 fold change: 0.0193

RRIRPRPPRLPRPRPRPMWRPRP
shrunken log2 fold change: -0.0622

RRIRARPPRLPRPRPRPLWHPRP
shrunken log2 fold change: 0.108

RRIRDRPPRLPRPRPRPLYRPRP
shrunken log2 fold change: -0.163

RRIRNRPPRLPRPRPRPLAGPRP
shrunken log2 fold change: 0.148

RRIRDRPPRLPRPRPRPDLEPRP
shrunken log2 fold change: 0.0526

RRIRQRPPRLPRPRPRPFPQPRP
shrunken log2 fold change: -0.0621

RRIRRRPPRLPRPRPRPVKQPRP
shrunken log2 fold change: -0.0104

RRIRWRPPRLPRPRPRPVLSPRP
shrunken log2 fold change: 0.415

RRIRMRPPRLPRPRPRPTYAPRP
shrunken log2 fold change: 0.0341

RRIRYRPPRLPRPRPRPRYPPRP
shrunken log2 fold change: -0.83

RRIRKRPPRLPRPRPRPIRGPRP
shrunken log2 fold change: 0.0181

RRIRTRPPRLPRPRPRPLGMPRP
shrunken log2 fold change: 0.257

RRIRFRPPRLPRPRPRPWYDPRP
shrunken log2 fold change: 0.13

RRIRSRPPRLPRPRPRPGYKPRP
shrunken log2 fold change: -0.084

RRIRKRPPRLPRPRPRPMITPRP
shrunken log2 fold change: -0.278

RRIRVRPPRLPRPRPRPDGNPRP
shrunken log2 fold change: -0.189

RRIRRRPPRLPRPRPRPYAAPRP
shrunken log2 fold change: 0.395

RRIRRRPPRLPRPRPRPKHNPRP
shrunken log2 fold change: 0.396

RRIRCRPPRLPRPRPRPANFPRP
shrunken log2 fold change: -0.0131

RRIRYRPPRLPRPRPRPISAPRP
shrunken log2 fold change: -0.373

RRIRDRPPRLPRPRPRPSQIPRP
shrunken log2 fold change: 0.016

RRIRRRPPRLPRPRPRPYSIPRP
shrunken log2 fold change: 0.0088

RRIRRRPPRLPRPRPRPREFPRP
shrunken log2 fold change: 0.419

RRIRIRPPRLPRPRPRPNLSPRP
shrunken log2 fold change: -0.0917

RRIRVRPPRLPRPRPRPHICPRP
shrunken log2 fold change: -0.18

RRIRIRPPRLPRPRPRPYYQPRP
shrunken log2 fold change: -0.296

RRIRRRPPRLPRPRPRPQRVPRP
shrunken log2 fold change: 0.155

RRIRNRPPRLPRPRPRPAYQPRP
shrunken log2 fold change: -0.146

RRIRQRPPRLPRPRPRPFPWPRP
shrunken log2 fold change: -0.0901

RRIRHRPPRLPRPRPRPLGEPRP
shrunken log2 fold change: 0.433

RRIRKRPPRLPRPRPRPVRRPRP
shrunken log2 fold change: 0.377

RRIRQRPPRLPRPRPRPNNIPRP
shrunken log2 fold change: -0.732

RRIRSRPPRLPRPRPRPSFHPRP
shrunken log2 fold change: -0.542

RRIRARPPRLPRPRPRPQNSPRP
shrunken log2 fold change: -0.23

RRIRYRPPRLPRPRPRPYPRPRP
shrunken log2 fold change: -0.097

RRIRHRPPRLPRPRPRPATEPRP
shrunken log2 fold change: 0.29

RRIRMRPPRLPRPRPRPSASPRP
shrunken log2 fold change: 1.7

RRIRQRPPRLPRPRPRPVQVPRP
shrunken log2 fold change: -0.0564

RRIRLRPPRLPRPRPRPEMLPRP
shrunken log2 fold change: -0.108

RRIRSRPPRLPRPRPRPPMYPRP
shrunken log2 fold change: -0.549

RRIRHRPPRLPRPRPRPVWIPRP
shrunken log2 fold change: -0.0159

RRIRVRPPRLPRPRPRPAKFPRP
shrunken log2 fold change: 0.42

RRIRMRPPRLPRPRPRPARKPRP
shrunken log2 fold change: 1.29

RRIRYRPPRLPRPRPRPFCQPRP
shrunken log2 fold change: 0.0155

RRIRSRPPRLPRPRPRPQHCPRP
shrunken log2 fold change: -0.0942

RRIRLRPPRLPRPRPRPHYEPRP
shrunken log2 fold change: -0.762

RRIRHRPPRLPRPRPRPSRSPRP
shrunken log2 fold change: -0.202

RRIRKRPPRLPRPRPRPRDGPRP
shrunken log2 fold change: 0.822

RRIRMRPPRLPRPRPRPPASPRP
shrunken log2 fold change: 1.65

RRIRERPPRLPRPRPRPFYPPRP
shrunken log2 fold change: -0.834

RRIRQRPPRLPRPRPRPTDSPRP
shrunken log2 fold change: -0.0401

RRIRTRPPRLPRPRPRPGEAPRP
shrunken log2 fold change: 0.282

RRIRARPPRLPRPRPRPTFHPRP
shrunken log2 fold change: 0.177

RRIRGRPPRLPRPRPRPINTPRP
shrunken log2 fold change: -0.4

RRIRDRPPRLPRPRPRPNPRPRP
shrunken log2 fold change: 0.0975

RRIRRRPPRLPRPRPRPIAWPRP
shrunken log2 fold change: 0.0624

RRIRARPPRLPRPRPRPYHAPRP
shrunken log2 fold change: -0.0253

RRIRGRPPRLPRPRPRPAAKPRP
shrunken log2 fold change: 1.02

RRIRERPPRLPRPRPRPVRNPRP
shrunken log2 fold change: -0.41

RRIRVRPPRLPRPRPRPFYYPRP
shrunken log2 fold change: -0.556

RRIRVRPPRLPRPRPRPEAAPRP
shrunken log2 fold change: 0.635

RRIRFRPPRLPRPRPRPKGLPRP
shrunken log2 fold change: -0.146

RRIRARPPRLPRPRPRPAHNPRP
shrunken log2 fold change: 0.155

RRIRWRPPRLPRPRPRPAQQPRP
shrunken log2 fold change: -0.00145

RRIRWRPPRLPRPRPRPCPPPRP
shrunken log2 fold change: -0.463

RRIRKRPPRLPRPRPRPFMAPRP
shrunken log2 fold change: 0.0398

RRIRGRPPRLPRPRPRPDTSPRP
shrunken log2 fold change: 0.383

RRIRWRPPRLPRPRPRPTHVPRP
shrunken log2 fold change: 0.316

RRIRARPPRLPRPRPRPISVPRP
shrunken log2 fold change: -0.173

RRIRFRPPRLPRPRPRPWSFPRP
shrunken log2 fold change: -0.34
